We go through two molecules from paper PMC8748714 (2022).

As a reminder, the IC50 is the concentration that gives 50% inhibition. A low value points to higher potency.

No end group written: not given here.

One assay concerns the target T1, GLP-1R Y145A (Homo sapiens).
T1 chain: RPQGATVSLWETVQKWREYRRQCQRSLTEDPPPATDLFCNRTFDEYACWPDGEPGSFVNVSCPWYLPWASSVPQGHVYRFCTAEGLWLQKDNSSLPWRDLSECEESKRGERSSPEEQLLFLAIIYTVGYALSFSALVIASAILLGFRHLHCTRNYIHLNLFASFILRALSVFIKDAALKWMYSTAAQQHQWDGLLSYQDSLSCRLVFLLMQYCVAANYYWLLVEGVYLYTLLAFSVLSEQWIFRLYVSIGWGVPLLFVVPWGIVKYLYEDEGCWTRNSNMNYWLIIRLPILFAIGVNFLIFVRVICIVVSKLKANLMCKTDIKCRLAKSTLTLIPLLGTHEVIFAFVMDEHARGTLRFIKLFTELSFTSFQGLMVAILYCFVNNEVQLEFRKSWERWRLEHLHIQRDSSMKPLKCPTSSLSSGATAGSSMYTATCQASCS

In a further assay the target is T2, GLP-1R M204A (Homo sapiens).
T2 chain: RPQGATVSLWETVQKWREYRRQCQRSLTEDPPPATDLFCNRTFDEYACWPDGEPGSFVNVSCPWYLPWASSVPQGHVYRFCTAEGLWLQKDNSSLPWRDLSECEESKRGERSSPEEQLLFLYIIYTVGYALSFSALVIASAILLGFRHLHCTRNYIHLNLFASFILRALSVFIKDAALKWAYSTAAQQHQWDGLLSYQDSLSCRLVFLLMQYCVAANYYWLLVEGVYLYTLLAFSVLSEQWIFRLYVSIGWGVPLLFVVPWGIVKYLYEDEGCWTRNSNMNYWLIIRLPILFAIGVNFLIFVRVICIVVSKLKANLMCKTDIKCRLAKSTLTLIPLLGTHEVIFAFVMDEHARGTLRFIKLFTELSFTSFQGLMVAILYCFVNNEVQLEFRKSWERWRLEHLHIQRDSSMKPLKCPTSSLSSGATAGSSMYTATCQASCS

The next assay addresses T3, GLP-1R P137A (Homo sapiens).
T3 chain: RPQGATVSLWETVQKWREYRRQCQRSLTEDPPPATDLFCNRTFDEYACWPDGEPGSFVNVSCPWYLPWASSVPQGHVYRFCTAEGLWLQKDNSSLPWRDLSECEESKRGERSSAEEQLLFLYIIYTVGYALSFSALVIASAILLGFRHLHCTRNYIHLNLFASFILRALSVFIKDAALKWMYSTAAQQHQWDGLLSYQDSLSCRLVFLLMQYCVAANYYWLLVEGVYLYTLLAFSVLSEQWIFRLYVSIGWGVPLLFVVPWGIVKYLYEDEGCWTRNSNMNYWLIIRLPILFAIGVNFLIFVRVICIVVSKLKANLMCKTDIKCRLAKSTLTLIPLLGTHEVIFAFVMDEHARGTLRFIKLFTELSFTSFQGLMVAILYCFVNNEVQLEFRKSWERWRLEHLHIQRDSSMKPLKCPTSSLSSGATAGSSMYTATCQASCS

The target in another assay is T4, GLP-1R Y205A (Homo sapiens).
T4 chain: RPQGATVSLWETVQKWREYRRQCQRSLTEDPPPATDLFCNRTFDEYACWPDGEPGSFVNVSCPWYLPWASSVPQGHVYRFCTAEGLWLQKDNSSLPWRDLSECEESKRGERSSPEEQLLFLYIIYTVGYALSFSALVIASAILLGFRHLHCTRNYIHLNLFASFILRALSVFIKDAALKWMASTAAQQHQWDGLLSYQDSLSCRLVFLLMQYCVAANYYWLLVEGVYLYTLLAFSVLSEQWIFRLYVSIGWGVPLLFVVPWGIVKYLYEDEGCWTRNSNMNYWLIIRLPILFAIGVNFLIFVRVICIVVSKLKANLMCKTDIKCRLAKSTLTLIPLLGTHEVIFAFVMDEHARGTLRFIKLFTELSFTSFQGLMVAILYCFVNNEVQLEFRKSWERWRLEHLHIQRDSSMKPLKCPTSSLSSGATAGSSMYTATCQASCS

A further assay concerns the target T5, GLP-1R L144A (Homo sapiens).
T5 chain: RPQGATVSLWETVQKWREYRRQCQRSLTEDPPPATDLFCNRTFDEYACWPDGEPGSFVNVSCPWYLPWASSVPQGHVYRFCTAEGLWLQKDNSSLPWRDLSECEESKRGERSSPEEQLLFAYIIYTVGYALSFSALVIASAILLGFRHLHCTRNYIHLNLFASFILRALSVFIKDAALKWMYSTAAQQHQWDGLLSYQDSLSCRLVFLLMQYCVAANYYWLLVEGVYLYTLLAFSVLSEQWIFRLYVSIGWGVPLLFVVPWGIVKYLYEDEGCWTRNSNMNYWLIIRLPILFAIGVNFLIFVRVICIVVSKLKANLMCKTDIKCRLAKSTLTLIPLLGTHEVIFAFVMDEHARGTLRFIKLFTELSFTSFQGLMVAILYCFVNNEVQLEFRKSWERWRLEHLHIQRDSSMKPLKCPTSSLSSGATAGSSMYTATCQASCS

A further assay deals with T6, GLP-1R L201A (Homo sapiens).
T6 chain: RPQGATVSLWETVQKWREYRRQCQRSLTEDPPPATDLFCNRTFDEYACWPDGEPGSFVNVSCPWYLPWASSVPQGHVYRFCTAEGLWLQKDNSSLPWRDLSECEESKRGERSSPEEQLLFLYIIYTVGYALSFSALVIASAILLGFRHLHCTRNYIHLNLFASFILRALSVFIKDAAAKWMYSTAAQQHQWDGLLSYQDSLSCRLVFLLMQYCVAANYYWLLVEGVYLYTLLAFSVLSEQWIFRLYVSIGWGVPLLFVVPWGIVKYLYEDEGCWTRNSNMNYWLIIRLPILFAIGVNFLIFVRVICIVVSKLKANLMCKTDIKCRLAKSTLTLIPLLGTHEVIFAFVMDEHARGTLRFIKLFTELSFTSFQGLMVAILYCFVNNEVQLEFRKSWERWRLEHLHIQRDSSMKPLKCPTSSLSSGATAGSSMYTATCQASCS

HAEGTFTSDVSSYLEGQAAKEFIAWLVKGR (not fully specified (C-terminus)) [glucagon-like peptide-1]: the IC50 was found to be 6.17 nM in the assay with GLP-1R Y145A; 79.4 nM in the assay with GLP-1R M204A; 40.7 nM in the assay with GLP-1R P137A; 3.09 nM with GLP-1R Y205A; 11 nM with GLP-1R L144A; 38.9 nM with GLP-1R L201A.

As to HSQGTFTSDYSKYLDSRRAQDFVQWLMNTKRNRNNIA [oxyntomodulin], the IC50 with GLP-1R Y145A stood at 24.5 nM; with GLP-1R M204A it was 741 nM; in the assay with GLP-1R P137A, 74.1 nM; with GLP-1R Y205A, 36.3 nM; with GLP-1R L144A, 51.3 nM; in the assay with GLP-1R L201A, 107 nM.
